In US8445431:
No end group written: not given here.

Key:
[1] = target: recombinant isoform of human Angiotensin Converting Enzyme (rhACE) corresponding to the ectodomain somatic ACE (human) (UniProt P12821); assay: Enzyme inhibition of rhACE with fluorogenic substrate, Dixon plot and KI=IC50/(1+[S]/Km); 45 min pre-incubation, hydrolytic conditions
[2] = target: recombinant isoform of human Angiotensin Converting Enzyme (rhACE) corresponding to the ectodomain somatic ACE (human) (UniProt P12821); assay: cell-based or functional assay
[3] = target: recombinant isoform of human Angiotensin Converting Enzyme (rhACE) corresponding to the ectodomain somatic ACE (human), P12821; assay: cell-based or functional assay
Chain of recombinant isoform of human Angiotensin Converting Enzyme (rhACE) corresponding to the ectodomain somatic ACE (human), P12821 (P12821 30-1256): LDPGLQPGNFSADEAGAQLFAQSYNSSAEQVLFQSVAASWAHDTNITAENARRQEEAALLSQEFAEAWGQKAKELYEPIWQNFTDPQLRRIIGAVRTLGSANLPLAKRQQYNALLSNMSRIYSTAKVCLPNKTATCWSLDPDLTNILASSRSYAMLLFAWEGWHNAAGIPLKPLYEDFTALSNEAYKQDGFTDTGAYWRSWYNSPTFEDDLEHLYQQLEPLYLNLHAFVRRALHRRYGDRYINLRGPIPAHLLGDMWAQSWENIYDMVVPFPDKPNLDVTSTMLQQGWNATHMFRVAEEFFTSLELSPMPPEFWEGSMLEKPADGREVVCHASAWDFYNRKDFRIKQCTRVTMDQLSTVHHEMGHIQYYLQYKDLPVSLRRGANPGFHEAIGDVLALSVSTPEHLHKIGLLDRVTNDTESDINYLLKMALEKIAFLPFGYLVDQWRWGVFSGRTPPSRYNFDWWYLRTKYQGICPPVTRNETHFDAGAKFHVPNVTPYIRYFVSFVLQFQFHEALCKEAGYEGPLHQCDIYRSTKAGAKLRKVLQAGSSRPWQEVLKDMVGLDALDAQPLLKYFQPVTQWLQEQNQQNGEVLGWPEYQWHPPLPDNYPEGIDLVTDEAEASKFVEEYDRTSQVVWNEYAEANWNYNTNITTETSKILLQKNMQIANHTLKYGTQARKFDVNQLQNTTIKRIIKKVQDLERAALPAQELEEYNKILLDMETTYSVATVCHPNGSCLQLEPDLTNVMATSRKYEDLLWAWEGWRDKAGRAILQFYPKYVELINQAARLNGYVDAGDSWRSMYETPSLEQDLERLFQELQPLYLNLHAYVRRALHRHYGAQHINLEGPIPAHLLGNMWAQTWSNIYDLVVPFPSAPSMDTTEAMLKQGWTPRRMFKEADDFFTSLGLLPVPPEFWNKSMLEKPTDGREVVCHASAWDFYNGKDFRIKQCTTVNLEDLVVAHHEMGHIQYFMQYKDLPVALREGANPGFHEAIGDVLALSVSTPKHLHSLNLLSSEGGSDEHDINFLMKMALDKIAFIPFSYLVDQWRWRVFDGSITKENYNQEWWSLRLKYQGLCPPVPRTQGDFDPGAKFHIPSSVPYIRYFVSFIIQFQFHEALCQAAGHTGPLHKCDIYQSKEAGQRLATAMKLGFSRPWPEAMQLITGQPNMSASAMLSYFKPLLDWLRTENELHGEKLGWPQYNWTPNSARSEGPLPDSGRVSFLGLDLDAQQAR

Chain of recombinant isoform of human Angiotensin Converting Enzyme (rhACE) corresponding to the ectodomain somatic ACE (human) (P12821 30-1256): as above

Binder | Ki [1] | IC50 of rhACE inhibition (fluorogenic substrate cleavage) [2] | IC50 of rhACE inhibition (fluorogenic substrate cleavage) [3]
KGHK (also: Cu(II) complex bound by ATCUN motif (free N-term, two peptide N, His3)) [[KGHK-Cu]+ copper(II) complex of KGHK] | 4 µM | 11 µM | 
KGHK [LysGlyHisLys (KGHK) peptide, metal-free] |  |  | > 100 µM
GGH [GlyGlyHis (GGH) peptide, metal-free] |  |  | > 100 µM
Gly-Gly-His (also: Cu(II) complex bound by ATCUN motif) [[GGH-Cu]- copper(II) complex of GGH] |  |  | > 100 µM

The remaining lines, values ahead:

Ki [1] | IC50 of rhACE inhibition (fluorogenic substrate cleavage) [2] | IC50 of rhACE inhibition (fluorogenic substrate cleavage) [3] | Binder
 |  | > 100 µM | YIHPF [TyrIleHisProPhe (YIHPF, Angiotensin II 4-8) peptide, metal-free]
 |  | > 100 µM | YIHPF (also: Cu(II) complex bound by ATCUN motif) [[YIHPF-Cu]- copper(II) complex of YIHPF]
